Experimental data from publication PMC8937303.

Molecular target: pFGFR2_(Cyto) (UniProt P21802)
Assay: MST

pFGFR2_(Cyto), sequence (P21802 400-821): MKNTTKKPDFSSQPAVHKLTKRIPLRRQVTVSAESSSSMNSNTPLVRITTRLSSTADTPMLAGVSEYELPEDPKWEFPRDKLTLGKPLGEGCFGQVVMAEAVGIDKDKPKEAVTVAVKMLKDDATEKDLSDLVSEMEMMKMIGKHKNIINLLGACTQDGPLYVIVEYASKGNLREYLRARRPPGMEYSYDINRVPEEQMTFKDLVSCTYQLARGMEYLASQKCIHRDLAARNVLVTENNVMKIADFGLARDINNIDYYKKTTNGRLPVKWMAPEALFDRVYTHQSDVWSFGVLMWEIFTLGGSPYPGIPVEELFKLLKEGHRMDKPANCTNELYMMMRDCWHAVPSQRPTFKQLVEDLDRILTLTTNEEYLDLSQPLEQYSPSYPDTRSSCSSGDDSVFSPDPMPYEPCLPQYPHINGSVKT

Substance	Kd
PLCγ1_(2SH2) (from UniProt P19174 545-791) (domain or fragment)	0.223 µM
SHP2_(2SH2) (from UniProt Q06124 1-221) (domain or fragment)	25.1 µM
